Measurements published in article PMC2956136.

Target: GST-RanQ69LGTP (UniProt P62826)
Assay: SPR

drop in response units with 5 μM Iβ1A against the DMSO control: 70%
Substance: importin β (from UniProt Q14974 1-876) (natural protein; other documents disagree on this pair)
